Key:
[1] = target: T1, SbmA (Escherichia coli, UniProt P0AFY6); assay: cryo-EM structure; SbmA incubated with SB2 in a 1:2 molar ratio, 30 min, 4 °C; complex purified by SEC in TBS pH 7.4, 0.05% DDM; 200 kV (Table 1 names lipid nanodiscs for identifier D); conditions: both partners purified
T1 construct: SbmA, inner membrane peptide transporter of Escherichia coli, cloned from genomic DNA into pBXC3H; Homodimer; no cleavage is described; also called SbmA-like peptide transporter (SLiPT) family member; source: E. coli MC1061, purified (Nickel Sepharose, SEC) in DDM; for some samples reconstituted into MSP1E3D1 lipid nanodiscs

[2] = target: T1, SbmA; assay: as above; conditions: both partners purified; remark: listed apart in the source
[3] = target: the molecule itself; assay: cryo-EM structure; SbmA in complex with Fab S11-1 in lipid nanodiscs (MSP1E3D1; DOPC:POPG:POPO-cardiolipin 13:4:1), SEC in 20 mM MES pH 5.5, 300 KCl; 300 kV
[4] = target: T1, SbmA; assay: as above; conditions: both partners purified

B1: Sybody2 (VHH)
VHH: QVQLVESGGGLVQAGGSLRLSCAASGFPVIANVMYWYRQAPGKEREWVAAIDSSGEYAYYADSVKGRFTISRDNAKNTVYLQMNSLKPEDTAVYYCYVKVGSHYWGQGTQVTVSA
notes: synthetic nanobody (sybody, 16 kDa) selected against biotinylated SbmA T403C; also called SB2; Sb2
stoichiometry N [1]: 1 sybody per SbmA dimer | stoichiometry N [2]: 2 Sb per SbmA dimer

B2: SbmA (natural protein, Escherichia coli)
chain: MFKSFFPKPGTFFLSAFVWALIAVIFWQAGGGDWVARITGASGQIPISAARFWSLDFLIFYAYYIVCVGLFALFWFIYSPHRWQYWSILGTALIIFVTWFLVEVGVAVNAWYAPFYDLIQTALSSPHKVTIEQFYREVGVFLGIALIAVVISVLNNFFVSHYVFRWRTAMNEYYMANWQQLRHIEGAAQRVQEDTMRFASTLENMGVSFINAIMTLIAFLPVLVTLSAHVPELPIIGHIPYGLVIAAIVWSLMGTGLLAVVGIKLPGLEFKNQRVEAAYRKELVYGEDDATRATPPTVRELFSAVRKNYFRLYFHYMYFNIARILYLQVDNVFGLFLLFPSIVAGTITLGLMTQITNVFGQVRGAFQYLINSWTTLVELMSIYKRLRSFEHELDGDKIQEVTHTLS
notes: SbmA, inner membrane peptide transporter of Escherichia coli, cloned from genomic DNA into pBXC3H; Homodimer; no cleavage is described; also called SbmA-like peptide transporter (SLiPT) family member; source: E. coli MC1061, purified (Nickel Sepharose, SEC) in DDM; for some samples reconstituted into MSP1E3D1 lipid nanodiscs
stoichiometry N [3]: 2

B3: Fab fragment Fab S11-1 (Fab, V domains shown)
VH: LKLLDSGAELVKPGASVKLSCTASGFNIKDTYMYWVKQRPDQGLEWIGRIDPANGNSKYDPKFQGKATITADTSSNTAYLQVSSLTSEDTAVYYCARWLVRGRRGTMDYWGQGTSVTVSS
VL: DIVMTQSPAILSASPGEKVTMTCRASSSVSYMHWYQQKPGSSPKPWIYATSNLASGVPARFSGSGSGTSYSLTISRVEAEDAATYYCQQWSSNPRTFGGGTKLEIK
stoichiometry N [4]: 1 Fab per SbmA dimer

— article PMC13316013, “Shared structural mechanisms of alternating access between the secondary peptide transporter SbmA and ABC transporters” (Nature Communications, 2026)
